Target: Recombinant Human CTLA4-Fc chimera (R&D systems) (human) (UniProt P16410)
Test: ELISA, signal over SA

ELISA S/N(SA) | Binder
16.1 | GGCRHPYLPIFSAHFCRS (peptide, not shown: large carriers; small tags and cut ends) [C4m#19-5th4w-NN6-1]
16.1 | GGCMHPFLPIKSSHFCRK (peptide, not shown: large carriers; small tags and cut ends) [C4m#19-5th4w-NN6-6]
15.8 | GGCRHPFLPIVSLHFCPF (peptide, not shown: large carriers; small tags and cut ends) [C4m#19-5th2w-NNS6-51]
15.8 | GGCRHPWLPIWSVHFCGV (peptide, not shown: large carriers; small tags and cut ends) [C4m#19-5th4w-NN6-45]
15.3 | GGCWHPWLPIKSPHFCAL (peptide, not shown: large carriers; small tags and cut ends) [C4m#19-5th2w-NNS6-75]
15.1 | GGCFHPFLPIYSWHFCAR (peptide, not shown: large carriers; small tags and cut ends) [C4m#19-5th4w-NN6-74]
14.7 | GGCWHPYLPIQSLHFCPF (peptide, not shown: large carriers; small tags and cut ends) [C4m#19-5th4w-NN6-5-1]
14.7 | GGCWHPFLPILSLHFCGW (peptide, not shown: large carriers; small tags and cut ends) [C4m#19-6th4w-NN6-5-3]
14.2 | GGCVHPALPIWSFHFCPS (peptide, not shown: large carriers; small tags and cut ends) [C4m#19-5th4w-NN6-46-1]
13.7 | GGCWHPVLPIRSVHFCCR (peptide, not shown: large carriers; small tags and cut ends) [C4m#19-5th4w-NN6-64]
12.5 | GGCWHPFLPILSLHFCSR (peptide, not shown: large carriers; small tags and cut ends) [C4m#19-5th4w-NN6-65]
12 | GGCLHPLLPILSVHFCPS (peptide, not shown: large carriers; small tags and cut ends) [C4m#19-5th4w-NN6-83]
11.4 | GGCLHPWLPIRSFHFCGA (peptide, not shown: large carriers; small tags and cut ends) [C4m#19-5th2w-NNS6-53]
9.2 | GGCRHPFLPIVSRHFCVA (peptide, not shown: large carriers; small tags and cut ends) [C4m#19-5th2w-NNS6-79]
8.3 | GGCMHPFLPIISQHFCAF (peptide, not shown: large carriers; small tags and cut ends) [C4m#19-5th4w-NN6-89]
7.7 | GGCFHPYLPIWSLHFCRS (peptide, not shown: large carriers; small tags and cut ends) [C4m#19-5th2w-NNS6-86]
7 | GGCMHPFLPIRSWHFCSR (peptide, not shown: large carriers; small tags and cut ends) [C4m#19-5th2w-NNS6-74]
6.4 | GGCWHPFLPIVSFHFCPF (peptide, not shown: large carriers; small tags and cut ends) [C4m#19-5th2w-NNS6-84]
5.9 | GGCPHPMLPIFSVHFCPY (peptide, not shown: large carriers; small tags and cut ends) [C4m#19-5th4w-NN6-61]
5.7 | GGCRHPYLPIWSAHFCCR (peptide, not shown: large carriers; small tags and cut ends) [C4m#19-5th4w-NN6-36]
5.6 | GGCWHPFLPIKSVHFCCA (peptide, not shown: large carriers; small tags and cut ends) [C4m#19-5th4w-NN6-75]
5.1 | GGCRHPFLPIVSWHFCAA (peptide, not shown: large carriers; small tags and cut ends) [C4m#19-5th2w-NNS6-70]
5 | GGCLHPFLPIYSLHFCPC (peptide, not shown: large carriers; small tags and cut ends) [C4m#19-5th4w-NN6-94]
4.6 | GGCWHPWLPIVSVHFCGC (peptide, not shown: large carriers; small tags and cut ends) [C4m#19-5th4w-NN6-72]

Continued, binder first:

Binder | ELISA S/N(SA)
GGCSHPFLPIRSRHFCPF (peptide, not shown: large carriers; small tags and cut ends) [C4m3127-4th-NNS6-12] | 15.8
GGCFHPWLPIASWHFCGR (peptide, not shown: large carriers; small tags and cut ends) [C4m3127-4th-NNS6-48] | 13.5
GGCLHPYLPIVSSHFCPF (peptide, not shown: large carriers; small tags and cut ends) [C4m3127-4th-NNS6-64] | 12.9
GGCGHPFLPIFSLHFCPR (peptide, not shown: large carriers; small tags and cut ends) [C4m3127-4th-NNS6-80] | 12.8
GGCLHPFLPIRSVHFCLR (peptide, not shown: large carriers; small tags and cut ends) [C4m3127-4th-NNS6-79] | 12.8
GGCWHPSLPIYSPHFCPL (peptide, not shown: large carriers; small tags and cut ends) [C4m3127-4th-NNS6-2] | 12.8
GGCWHPFLPISSWHFCGL (peptide, not shown: large carriers; small tags and cut ends) [C4m3127-4th-NNS6-60] | 11.9
GGCRHPFLPIWSVHFCWR (peptide, not shown: large carriers; small tags and cut ends) [C4m#19-5th2w-NNS6-45] | 11
GGCSHPFLPIWSVHFCGQ (peptide, not shown: large carriers; small tags and cut ends) [C4m3127-4th-NNS6-3] | 10.9
GGCWHPYLPILSLHFCQR (peptide, not shown: large carriers; small tags and cut ends) [C4m#19-5th2w-NNS6-6] | 10.3
GGCFHPFLPIRSCHFCAR (peptide, not shown: large carriers; small tags and cut ends) [C4m#19-5th2w-NNS6-27] | 9.9
GGCIHPFLPIWSIHFCSR (peptide, not shown: large carriers; small tags and cut ends) [C4m#19-5th2w-NNS6-37] | 9.4
GGCRHPFLPIWSFHFCWG (peptide, not shown: large carriers; small tags and cut ends) [C4m#19-5th2w-NNS6-33] | 9.4
GGCGHPFLPIFSSHFCPL (peptide, not shown: large carriers; small tags and cut ends) [C4m3127-4th-NNS6-85] | 9.1
GGCWHPFLPILSWHFCGR (peptide, not shown: large carriers; small tags and cut ends) [C4m#19-5th2w-NNS6-30] | 9
GGCWHPCLPILSPHFCPR (peptide, not shown: large carriers; small tags and cut ends) [C4m3127-4th-NNS6-30] | 7.5
GGCAHPALPIWSCHFCPF (peptide, not shown: large carriers; small tags and cut ends) [C4m3127-4th-NNS6-26] | 7.1
GGCWHPFLPIFSAHFCMR (peptide, not shown: large carriers; small tags and cut ends) [C4m3127-4th-NNS6-89] | 6.6
GGCAHPYLPIRSVHFCPC (peptide, not shown: large carriers; small tags and cut ends) [C4m#19-5th2w-NNS6-28] | 6.3
GGCFHPWLPISSLHFCPF (peptide, not shown: large carriers; small tags and cut ends) [C4m#19-5th2w-NNS6-4] | 6.3
GGCFHPFLPIFSYHFCGL (peptide, not shown: large carriers; small tags and cut ends) [C4m#19-5th2w-NNS6-46] | 6.1
GGCRHPVLPIWSSHFCPW (peptide, not shown: large carriers; small tags and cut ends) [C4m3127-4th-NNS6-94] | 5.9
GGCLHPFLPIVSIHFCSA (peptide, not shown: large carriers; small tags and cut ends) [C4m#19-5th2w-NNS6-26] | 5.8
GGCCHPFLPIYSVHFCAS (peptide, not shown: large carriers; small tags and cut ends) [C4m#19-5th2w-NNS6-34] | 5
GGCAHPHLPIRSVHFCSF (peptide, not shown: large carriers; small tags and cut ends) [C4m3127-4th-NNS6-66] | 4.8
GGCRHPFLPIWSSHFCAA (peptide, not shown: large carriers; small tags and cut ends) [C4m#19-5th2w-NNS6-43] | 4.8
GGCRHPFLPIRSPHFCGS (peptide, not shown: large carriers; small tags and cut ends) [C4m3127-4th-NNS6-7] | 4.7
